Test results reported in patent US20170145086A1 (VISTERRA, published 2017).

Columns and labels:
[1] = molecular target: T1, HA-GCN4 hAPRIL (amino acid residues 105-250) (human, UniProt O75888 105-250); test: blocking ELISA, 4-parameter fit; blocked: human APRIL binding to human BCMA-Fc
T1 construct: Bought (R&D Systems); also called HA-tagged GCN4 human APRIL; HA-GCN4-huAPRIL; not shown: N-terminal HA tag; GCN4 isoleucine zipper oligomerization domain
T1 sequence: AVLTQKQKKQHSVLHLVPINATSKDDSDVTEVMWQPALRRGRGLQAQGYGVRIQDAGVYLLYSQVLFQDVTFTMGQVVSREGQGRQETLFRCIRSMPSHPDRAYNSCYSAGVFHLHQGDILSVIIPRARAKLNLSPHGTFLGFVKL
Experimental: (§1) FIGS. 19A-19B depict the antibody inhibition of APRIL binding to TNFSF receptors TACI (FIG. 19A) and BCMA (FIG. 19B). Assay is based on blocking ELISA using recombinant human APRIL (R&D Systems) and Human TACI-Fc. Inhibition was analyzed by non-linear regression using a four parameter fit.
(§2) Recombinant TACI-Fc or BCMA-Fc was coated on 96 well plates in 0.1 M carbonate-bicarbonate buffer (pH 9.6), overnight at 4° C. Plates were washed three times with 1×PBST (PBS+0.025% Tween 20) followed by blocking with 1% BSA in 1×PBS, 37° C. for 1 hour. All subsequent wash steps were carried out with 1×PBST. To assess antibody blocking, either 15 ng/mL or 50 ng/mL HA-GCN4-huAPRIL was preincubated with varying antibody concentrations ranging from 0.03-30 μg/mL in binding buffer comprised of 1% BSA and 0.025% Tween-20 in 1×PBS. Preincubation was carried out at 30° C. for 1 hour with mixing. Antibody-APRIL premix with 50 ng/mL APRIL or 15 ng/mL APRIL was then added to TACI-Fc coated or BCMA-Fc coated plates, respectively, and incubated for an additional hour at 30° C. HA-tagged APRIL binding to either receptor was quantified using a goat polyclonal anti-HA tag-HRP antibody (Abcam) added at a 1:10000 dilution followed by colorimetric development using 100 μl/well of freshly prepared TMB substrate (KPL) carried out for up to 30 minutes at room temperature before quenching enzymatic reaction by the addition of 1N sulfuric acid. ELISA signal was quantified by absorbance at 450 nm. ELISA data was analyzed by non-linear regression. IC₅₀ values were calculated based on a 4 parameter fit of antibody titration curves. […] Non-blocking antibodies Aprly-1 or Aprly-5 (Enzo Biosciences) were used as negative controls. Mouse specific, blocking antibody aprily-1-1 (Adipogen) was generally used as a positive control in experiments using mouse APRIL (HA-GCN4-mAPRIL).

[2] = molecular target: T2, human RANKL (TNFSF11; Adipogen) (human, UniProt O14788 152-317, limits assumed); test: indirect ELISA, cytokine coated
T2 sequence (looked up): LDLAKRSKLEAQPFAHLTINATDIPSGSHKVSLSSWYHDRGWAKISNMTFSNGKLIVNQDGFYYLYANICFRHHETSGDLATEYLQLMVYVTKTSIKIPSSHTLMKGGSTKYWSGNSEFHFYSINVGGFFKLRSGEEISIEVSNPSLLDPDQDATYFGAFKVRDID
Experimental: (§3) Selected anti-APRIL antibodies were evaluated for potential cross-reactivity with other members of the TNFa superfamily (TNFSF) family of cytokines, including: human TNFα (TNFSF2; Adipogen), human […] (TNFSF4, Adipogen), human FasL (TNFSF6, Adipogen), human TRAIL (TNFSF10, Adipogen), human RANKL (TNFSF11; Adipogen), human Tweak (TNFSF12; Abcam), human and mouse BAFF (TNFSF13B, AB Biosciences and Adipogen, respectively), and human LIGHT (TNFSF14, Adipogen). These cytokines share variable degree of sequence as well as higher order structural homologies. Among them, BAFF appears to be the most closely related to APRIL, with 29% identity and 53% amino acid sequence similarity.
(§4) Binding was evaluated by an indirect ELISA protocol using similar methods described for evaluation of APRIL binding; cytokines were immobilized to ELISA plate at 50 ng per well and then exposed to a solution of each of the test antibodies at a fixed concentration of 10 μg/ml Anti-human or anti-mouse Ig-HRP polyclonal antibody conjugates (Jackson Laboratories) were used for detection of antibody binding. The results presented in FIG. 36 indicated eleven of the twelve antibodies tested in this assay to specifically bind APRIL with no measurable cross-reactivity with the other TNFSF members substantially above assay background.

[3] = molecular target: human TRAIL (TNFSF10, Adipogen) (human, UniProt P50591 95-281, limits assumed); test: indirect ELISA, cytokine coated
Chain of human TRAIL (TNFSF10, Adipogen) (P50591 95-281 limits assumed): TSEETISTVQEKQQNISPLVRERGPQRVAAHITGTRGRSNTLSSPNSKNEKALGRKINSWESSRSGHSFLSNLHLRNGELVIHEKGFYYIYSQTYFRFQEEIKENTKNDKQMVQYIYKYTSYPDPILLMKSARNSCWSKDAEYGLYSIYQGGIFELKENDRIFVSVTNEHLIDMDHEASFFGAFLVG
Experimental: as §3, §4

[4] = molecular target: human TNFα (TNFSF2; Adipogen) (human, UniProt P01375 85-233, limits assumed); test: indirect ELISA, cytokine coated
Chain of human TNFα (TNFSF2; Adipogen) (P01375 85-233 limits assumed): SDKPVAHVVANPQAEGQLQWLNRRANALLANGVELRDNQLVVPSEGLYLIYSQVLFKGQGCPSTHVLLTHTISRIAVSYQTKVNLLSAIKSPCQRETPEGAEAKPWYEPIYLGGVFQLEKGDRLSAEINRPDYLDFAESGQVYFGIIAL
Experimental: as §3, §4

[5] = molecular target: T3, human FasL (TNFSF6, Adipogen) (human, UniProt P48023 103-281, limits assumed); test: indirect ELISA, cytokine coated
T3 sequence (looked up): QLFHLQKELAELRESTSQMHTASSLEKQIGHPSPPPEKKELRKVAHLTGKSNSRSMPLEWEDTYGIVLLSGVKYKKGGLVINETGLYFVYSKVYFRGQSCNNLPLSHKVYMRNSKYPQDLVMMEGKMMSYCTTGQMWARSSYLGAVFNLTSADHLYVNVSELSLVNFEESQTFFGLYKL
Experimental: as §3, §4

[6] = molecular target: human BAFF (TNFSF13B, AB Biosciences) (human, UniProt Q9Y275 134-285, limits assumed); test: indirect ELISA, cytokine coated
Experimental: as §3, §4

[7] = molecular target: mouse BAFF (TNFSF13B, Adipogen) (mouse, UniProt Q9WU72 127-309, limits assumed); test: indirect ELISA, cytokine coated
Chain of mouse BAFF (TNFSF13B, Adipogen) (Q9WU72 127-309 limits assumed): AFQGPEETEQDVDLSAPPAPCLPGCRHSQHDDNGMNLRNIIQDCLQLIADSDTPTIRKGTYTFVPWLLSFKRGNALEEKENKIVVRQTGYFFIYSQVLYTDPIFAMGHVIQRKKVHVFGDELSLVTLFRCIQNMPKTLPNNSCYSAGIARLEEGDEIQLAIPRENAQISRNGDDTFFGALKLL
Experimental: as §3, §4

[8] = molecular target: human LIGHT (TNFSF14, Adipogen) (human, UniProt O43557 89-240, limits assumed); test: indirect ELISA, cytokine coated
Chain of human LIGHT (TNFSF14, Adipogen) (O43557 89-240 limits assumed): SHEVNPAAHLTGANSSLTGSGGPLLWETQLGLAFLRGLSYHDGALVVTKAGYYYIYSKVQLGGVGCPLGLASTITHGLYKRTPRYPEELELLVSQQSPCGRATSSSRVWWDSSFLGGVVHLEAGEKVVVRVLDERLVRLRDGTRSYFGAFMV
Experimental: as §3, §4

[9] = molecular target: T1, HA-GCN4 hAPRIL (amino acid residues …); test: blocking ELISA; blocked: human APRIL binding to human TACI-Fc; design: concentration or dose not given beside the values
Experimental: as §1, §2

IC50 [1]: 0.56 nM
binding result [2]: no binding (tested: 10 µg/ml (p-1128))
binding result [3]: no binding (tested: 10 µg/ml (p-1128))
binding result [4]: no binding (tested: 10 µg/ml (p-1128))
binding result [5]: no binding (tested: 10 µg/ml (p-1128))
binding result [6]: no binding (tested: 10 µg/ml (p-1128))
binding result [7]: no binding (tested: 10 µg/ml (p-1128))
binding result [8]: no binding (tested: 10 µg/ml (p-1128))
% Inhibition [9]: 95%
B1: 4237 (antibody, V domains shown)
VH: QAHLKESGPGLVAPSQSLSITCTVSGFSLTDYDVHWVRQSPGKGLEWLGVIWNDGSTDYNTAFISRLTISKDNSKSQVFFKMNSLQADDTAIYYCARNWYGGYWFAYWGQGTLVTVSA
VL: DIQMTQSPASLSASAGETVTITCRSSENIYSYLAWYQQKQGKSPQLLVYNANALAEGVPSRFSGSGSVTQFSLKINSLQPEDFGSYYCQHHYGTPFTFGSGTKLEIK
notes: also called monoclonal antibody 4237
